Results published in patent US20240247080A1, “GLP1/GIP/NPY2 RECEPTOR TRIPLE AGONISTS” (Boehringer Ingelheim International GmbH, priority 2022, published 2024).
Where a chain is given by its changes, count along the chain named. Starred links: 1 amine or outer side, 2 acyl side, 3 side chain; linkers in the order of their positions; H or OH if unused. Non-standard residues stand in square brackets, D forms with d. Groups on a side chain read outwards from the residue. No end group written: not given here. *: point of attachment. C18 diacid = O=C(O)CCCCCCCCCCCCCCCCC(=O)*; γGlu = O=C(O)[C@H](CCC(=O)[*:2])N[*:1]; εLys = N[C@@H](CCCCN[*:1])C(=O)[*:2]; Aib = CC(C)(N)C(=O)O; OEG = OEG spacer

B1: Compound 14 (peptide)
peptide: YXEGTFTSDYSIXLEKQAQXAFVQWLIKGGPRYYASLRHYYNWLTRQRY
modifications: Aib at 2, 13, 20; K28 side chain: C20DA-gGlu-gGlu-gGlu-gGlu-gGlu-gGlu-eLys; C-terminal NH2
B2: Compound 15 (peptide)
peptide: B1 peptide with R32S, Y33S, A35V
modifications: Aib at 2, 13, 20; K28 side chain: C20DA-gGlu-gGlu-gGlu-gGlu-gGlu-gGlu-eLys; C-terminal NH2
B3: Compound 16 (peptide)
peptide: YXEGTFTSDYSIXLEXEAQXKFVEWLIKGGPSSGASLRHYYNWLTRQRY
modifications: Aib at 2, 13, 16, 20; K28 side chain: C20DA-gGlu-gGlu-gGlu-gGlu-gGlu-gGlu-eLys; C-terminal NH2
B4: Compound 86 (peptide)
peptide: B3 peptide with X16K, E17Q, K21A, Y41L
modifications: Aib at 2, 13, 20; K28 side chain: C20DA-gGlu-gGlu-gGlu-gGlu-gGlu-gGlu-eLys; C-terminal NH2
B5: Compound 17 (peptide)
peptide: B3 peptide with X16K, E17Q, K21A, Y41L, W43L, L44X
modifications: Aib at 2, 13, 20, 44; K28 side chain: C20DA-gGlu-gGlu-gGlu-gGlu-gGlu-gGlu-eLys; C-terminal NH2
B6: Compound 10 (peptide)
peptide: B1 peptide with Q24E, R32S, Y33S, Y34P, A35E, L37X
modifications: Aib at 2, 13, 20, 37; K28 side chain: C20DA-gGlu-gGlu-gGlu-gGlu-gGlu-gGlu-eK; C-terminal NH2
B7: Compound 87 (peptide)
peptide: B3 peptide with E3D, X16K, E17Q, K21A
modifications: Aib at 2, 13, 20; K28 side chain: C20DA-gGlu-gGlu-gGlu-gGlu-gGlu-gGlu-eLys; C-terminal NH2
B8: Compound 12 (peptide)
peptide: B1 peptide with R32E, Y33S, Y34P
modifications: Aib at 2, 13, 20; K28 side chain: C18DA-gGlu-gGlu-gGlu-gGlu-gGlu; C-terminal NH2
B9: Compound 11 (peptide)
peptide: B1 peptide with R32E, Y33S, Y34P
modifications: Aib at 2, 13, 20; K28 side chain: C20DA-gGlu-gGlu-gGlu-gGlu-gGlu; C-terminal NH2
B10: Compound 259 (peptide)
peptide: B3 peptide with X16K, E17Q, K21A
modifications: Aib at 2, 13, 20; K28 side chain acylated with C18DA-gGlu-gGlu-gGlu-gGlu-gGlu-gGlu-eLys; C-terminal amide (NH2)
B11: Compound 260 (peptide)
peptide: B3 peptide with X16K, E17Q, K21A
modifications: Aib at 2, 13, 20; K28 side chain acylated with C18DA-gGlu-gGlu-gGlu-gGlu-gGlu-AHX; C-terminal amide (NH2)
B12: Compound 261 (peptide)
peptide: B3 peptide with X16K, E17Q, K21A
modifications: Aib at 2, 13, 20; K28 side chain acylated with C18DA-gGlu-gGlu-gGlu-gGlu-gGlu-OEG-OEG; C-terminal amide (NH2)
B13: Compound 265 (peptide)
peptide: B1 peptide with R32S, Y33E, Y34G
modifications: Aib at 2, 13, 20; K28 side chain acylated with C18DA-gGlu-gGlu-gGlu-gGlu-gGlu-gGlu-eLys; C-terminal amide (NH2)

Molecular target: T1, human neuropeptide Y2 (NPY2) receptor (human, UniProt P49146 1-381)
T1 sequence (looked up): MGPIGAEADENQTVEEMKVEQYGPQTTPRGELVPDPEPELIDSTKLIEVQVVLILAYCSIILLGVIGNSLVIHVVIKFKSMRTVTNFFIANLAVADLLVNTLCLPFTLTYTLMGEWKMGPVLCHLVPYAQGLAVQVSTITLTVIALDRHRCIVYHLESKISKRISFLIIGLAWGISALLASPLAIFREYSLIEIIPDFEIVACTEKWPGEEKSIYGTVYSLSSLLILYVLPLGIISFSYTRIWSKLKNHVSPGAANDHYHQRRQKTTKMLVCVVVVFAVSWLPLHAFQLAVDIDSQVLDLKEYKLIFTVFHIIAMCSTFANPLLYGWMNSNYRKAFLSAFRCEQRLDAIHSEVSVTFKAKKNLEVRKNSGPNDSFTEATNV
Assay: cell-based or functional assay

Binder	EC50, CreLuc assay, 0.5% hP [nM]	EC50, CreLuc assay, 100% hP [nM]
B1	6.85	28.5
B2	6.01	15.4
B3	28.8	197
B4	23.7	53.1
B5	> 100	450
B6	18.2	42.2
B7	20.7	73.4
B8	11.9	45.8
B9	10.3	51.5
Y[Aib]EGTFTSDYSI[Aib]LEKQAQ[Aib]AFVEWLIKGGPSSGAS[Aib]RHYYNR[Aib]TRQRY-NH2 (not fully specified (residue 28); also: TFA salt) [Compound 13]	9.54	31.5

Molecular target: T2, human GIP receptor (human, UniProt P48546 22-466)
T2 sequence (looked up): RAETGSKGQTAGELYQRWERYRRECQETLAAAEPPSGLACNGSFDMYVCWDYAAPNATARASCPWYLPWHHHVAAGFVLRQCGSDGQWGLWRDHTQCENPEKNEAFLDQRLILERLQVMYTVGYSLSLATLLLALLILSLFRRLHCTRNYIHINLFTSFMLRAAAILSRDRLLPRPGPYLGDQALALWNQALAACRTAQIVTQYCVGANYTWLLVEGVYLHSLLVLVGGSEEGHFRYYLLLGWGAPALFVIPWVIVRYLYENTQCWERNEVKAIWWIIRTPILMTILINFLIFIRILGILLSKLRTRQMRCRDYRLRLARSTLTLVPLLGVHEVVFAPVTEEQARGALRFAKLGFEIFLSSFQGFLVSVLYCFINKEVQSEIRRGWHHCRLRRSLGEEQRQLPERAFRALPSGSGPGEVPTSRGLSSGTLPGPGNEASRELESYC
Assay: cell-based or functional assay

Binder	EC50 hGIPR 0.5% hP (CreLuc) [nM]	EC50 hGIPR 100% hP (CreLuc) [nM]
Y[Aib]EGTFTSDYSI[Aib]LEKQAQ[Aib]AFVEWLIK([εLys-γGlu-γGlu-γGlu-γGlu-γGlu-C18 diacid])GGPSEPASLRHYYNWLTRQRY-NH2 (also: TFA salt) [Compound 263]	0.12	1.5
Y[Aib]EGTFTSDYSI[Aib]LEKQAQ[Aib]AFVQWLIK([Glu-Glu-Glu-Glu-Glu-Glu-C18 diacid])GGPSEGASLRHYYNWLTRQRY-NH2 (also: TFA salt) [Compound 264]	0.28	1.82
Y[Aib]EGTFTSDYSI[Aib]LEKQAE[Aib]AFVEWLIK([γGlu-γGlu-γGlu-γGlu-C18 diacid])GGPSEGASLRHYYNWLTRQRY-NH2 (also: TFA salt) [Compound 262]	0.08	0.53
Y[Aib]EGTFTSDYSI[Aib]LEKQAQ[Aib]AFVQWLIK([OEG-OEG-γGlu-γGlu-γGlu-C18 diacid])GGPSEGASLRHYYNWLTRQRY-NH2 (also: TFA salt) [Compound 266]	0.13	0.65
Y[Aib]EGTFTSDYSI[Aib]LEKQAQ[Aib]AFVQWLIK([εLys-γGlu-γGlu-γGlu-γGlu-γGlu-C18 diacid])GGPSEGASLRHYYNWLTRQRY-NH2 (also: TFA salt) [Compound 267]	0.12	1.18
B10	0.22	0.91
B11	0.31	2.53
B12	0.18	1.15
B13	0.39	0.79

Molecular target: human GLP-1 receptor (human, UniProt P43220 24-463)
Assay: cell-based or functional assay

Binder	EC50, CreLuc assay, 0.5% hP [nM]	EC50, CreLuc assay, 100% hP [nM]
B1	0.4	7.13
B2	0.16	4.11
B3	1.48	30.3
B4	0.25	2.47
B5	0.14	2.28
B6	0.11	2.59
B7	0.08	2
B8	0.11	4.76
B9	0.11	6.69
Y[Aib]EGTFTSDYSI[Aib]LEKQAQ[Aib]AFVEWLIKGGPSSGAS[Aib]RHYYNR[Aib]TRQRY-NH2 (not fully specified (residue 28); also: TFA salt) [Compound 13]	0.05	0.92

Molecular target: T3, human neuropeptide Y2 receptor (human, UniProt P49146 1-381)
T3 sequence (looked up): T1 sequence (looked up)
Assay: cell-based or functional assay

Binder	EC50 hNPY2R 0.5% hP (CreLuc) [nM]	EC50 hNPY2R 100% hP (CreLuc) [nM]
Y[Aib]EGTFTSDYSI[Aib]LEKQAQ[Aib]AFVEWLIK([εLys-γGlu-γGlu-γGlu-γGlu-γGlu-C18 diacid])GGPSEPASLRHYYNWLTRQRY-NH2 (also: TFA salt) [Compound 263]	15.8	83.2
Y[Aib]EGTFTSDYSI[Aib]LEKQAQ[Aib]AFVQWLIK([Glu-Glu-Glu-Glu-Glu-Glu-C18 diacid])GGPSEGASLRHYYNWLTRQRY-NH2 (also: TFA salt) [Compound 264]	16.8	81.2
Y[Aib]EGTFTSDYSI[Aib]LEKQAE[Aib]AFVEWLIK([γGlu-γGlu-γGlu-γGlu-C18 diacid])GGPSEGASLRHYYNWLTRQRY-NH2 (also: TFA salt) [Compound 262]	13.2	58.2
Y[Aib]EGTFTSDYSI[Aib]LEKQAQ[Aib]AFVQWLIK([OEG-OEG-γGlu-γGlu-γGlu-C18 diacid])GGPSEGASLRHYYNWLTRQRY-NH2 (also: TFA salt) [Compound 266]	7.2	22.9
Y[Aib]EGTFTSDYSI[Aib]LEKQAQ[Aib]AFVQWLIK([εLys-γGlu-γGlu-γGlu-γGlu-γGlu-C18 diacid])GGPSEGASLRHYYNWLTRQRY-NH2 (also: TFA salt) [Compound 267]	9.25	27.6
B10	10.7	29.3
B11	26.4	69.6
B12	24.1	64
B13	8.83	23

Molecular target: human GLP-1 receptor (human, UniProt P43220 24-463)
Assay: cell-based or functional assay
Remark: another data set of the same source

Binder	EC50 hGLP1R 0.5% hP (CreLuc) [nM]	EC50 hGLP1R 100% hP (CreLuc) [nM]
Y[Aib]EGTFTSDYSI[Aib]LEKQAQ[Aib]AFVEWLIK([εLys-γGlu-γGlu-γGlu-γGlu-γGlu-C18 diacid])GGPSEPASLRHYYNWLTRQRY-NH2 (also: TFA salt) [Compound 263]	0.32	5.21
Y[Aib]EGTFTSDYSI[Aib]LEKQAQ[Aib]AFVQWLIK([Glu-Glu-Glu-Glu-Glu-Glu-C18 diacid])GGPSEGASLRHYYNWLTRQRY-NH2 (also: TFA salt) [Compound 264]	0.11	3.95
Y[Aib]EGTFTSDYSI[Aib]LEKQAE[Aib]AFVEWLIK([γGlu-γGlu-γGlu-γGlu-C18 diacid])GGPSEGASLRHYYNWLTRQRY-NH2 (also: TFA salt) [Compound 262]	0.13	4.28
Y[Aib]EGTFTSDYSI[Aib]LEKQAQ[Aib]AFVQWLIK([OEG-OEG-γGlu-γGlu-γGlu-C18 diacid])GGPSEGASLRHYYNWLTRQRY-NH2 (also: TFA salt) [Compound 266]	0.1	2.21
Y[Aib]EGTFTSDYSI[Aib]LEKQAQ[Aib]AFVQWLIK([εLys-γGlu-γGlu-γGlu-γGlu-γGlu-C18 diacid])GGPSEGASLRHYYNWLTRQRY-NH2 (also: TFA salt) [Compound 267]	0.07	1.44
B10	0.09	2.55
B11	0.13	2.78
B12	0.15	3.91
B13	0.1	2.13

Molecular target: T4, human GIP receptor (human, UniProt P48546 22-466)
T4 sequence (looked up): T2 sequence (looked up)
Assay: cell-based or functional assay

Binder	EC50, CreLuc assay, 0.5% hP [nM]	EC50, CreLuc assay, 100% hP [nM]
B1	0.71	2.22
B2	0.32	2.43
B3	0.66	4.53
B4	0.48	1.61
B5	0.43	2.23
B6	0.07	1.25
B7	0.58	5.65
B8	0.14	1.8
B9	0.17	2.54
Y[Aib]EGTFTSDYSI[Aib]LEKQAQ[Aib]AFVEWLIKGGPSSGAS[Aib]RHYYNR[Aib]TRQRY-NH2 (not fully specified (residue 28); also: TFA salt) [Compound 13]	0.09	0.77
